Experimental findings from patent publication US20050266528A1 are described below.

This assay concerns the target von Willebrand factor (vWF) (UniProt P04275). The experiment in a line: affinity chromatography, peptide immobilised, linear 0-2 mol/l NaCl gradient, vWF antigen ELISA of fractions. (In an ELISA, binding on a coated surface is turned into a signal by an enzyme label.)
Chain of UniProt P04275 (P04275 764-2813): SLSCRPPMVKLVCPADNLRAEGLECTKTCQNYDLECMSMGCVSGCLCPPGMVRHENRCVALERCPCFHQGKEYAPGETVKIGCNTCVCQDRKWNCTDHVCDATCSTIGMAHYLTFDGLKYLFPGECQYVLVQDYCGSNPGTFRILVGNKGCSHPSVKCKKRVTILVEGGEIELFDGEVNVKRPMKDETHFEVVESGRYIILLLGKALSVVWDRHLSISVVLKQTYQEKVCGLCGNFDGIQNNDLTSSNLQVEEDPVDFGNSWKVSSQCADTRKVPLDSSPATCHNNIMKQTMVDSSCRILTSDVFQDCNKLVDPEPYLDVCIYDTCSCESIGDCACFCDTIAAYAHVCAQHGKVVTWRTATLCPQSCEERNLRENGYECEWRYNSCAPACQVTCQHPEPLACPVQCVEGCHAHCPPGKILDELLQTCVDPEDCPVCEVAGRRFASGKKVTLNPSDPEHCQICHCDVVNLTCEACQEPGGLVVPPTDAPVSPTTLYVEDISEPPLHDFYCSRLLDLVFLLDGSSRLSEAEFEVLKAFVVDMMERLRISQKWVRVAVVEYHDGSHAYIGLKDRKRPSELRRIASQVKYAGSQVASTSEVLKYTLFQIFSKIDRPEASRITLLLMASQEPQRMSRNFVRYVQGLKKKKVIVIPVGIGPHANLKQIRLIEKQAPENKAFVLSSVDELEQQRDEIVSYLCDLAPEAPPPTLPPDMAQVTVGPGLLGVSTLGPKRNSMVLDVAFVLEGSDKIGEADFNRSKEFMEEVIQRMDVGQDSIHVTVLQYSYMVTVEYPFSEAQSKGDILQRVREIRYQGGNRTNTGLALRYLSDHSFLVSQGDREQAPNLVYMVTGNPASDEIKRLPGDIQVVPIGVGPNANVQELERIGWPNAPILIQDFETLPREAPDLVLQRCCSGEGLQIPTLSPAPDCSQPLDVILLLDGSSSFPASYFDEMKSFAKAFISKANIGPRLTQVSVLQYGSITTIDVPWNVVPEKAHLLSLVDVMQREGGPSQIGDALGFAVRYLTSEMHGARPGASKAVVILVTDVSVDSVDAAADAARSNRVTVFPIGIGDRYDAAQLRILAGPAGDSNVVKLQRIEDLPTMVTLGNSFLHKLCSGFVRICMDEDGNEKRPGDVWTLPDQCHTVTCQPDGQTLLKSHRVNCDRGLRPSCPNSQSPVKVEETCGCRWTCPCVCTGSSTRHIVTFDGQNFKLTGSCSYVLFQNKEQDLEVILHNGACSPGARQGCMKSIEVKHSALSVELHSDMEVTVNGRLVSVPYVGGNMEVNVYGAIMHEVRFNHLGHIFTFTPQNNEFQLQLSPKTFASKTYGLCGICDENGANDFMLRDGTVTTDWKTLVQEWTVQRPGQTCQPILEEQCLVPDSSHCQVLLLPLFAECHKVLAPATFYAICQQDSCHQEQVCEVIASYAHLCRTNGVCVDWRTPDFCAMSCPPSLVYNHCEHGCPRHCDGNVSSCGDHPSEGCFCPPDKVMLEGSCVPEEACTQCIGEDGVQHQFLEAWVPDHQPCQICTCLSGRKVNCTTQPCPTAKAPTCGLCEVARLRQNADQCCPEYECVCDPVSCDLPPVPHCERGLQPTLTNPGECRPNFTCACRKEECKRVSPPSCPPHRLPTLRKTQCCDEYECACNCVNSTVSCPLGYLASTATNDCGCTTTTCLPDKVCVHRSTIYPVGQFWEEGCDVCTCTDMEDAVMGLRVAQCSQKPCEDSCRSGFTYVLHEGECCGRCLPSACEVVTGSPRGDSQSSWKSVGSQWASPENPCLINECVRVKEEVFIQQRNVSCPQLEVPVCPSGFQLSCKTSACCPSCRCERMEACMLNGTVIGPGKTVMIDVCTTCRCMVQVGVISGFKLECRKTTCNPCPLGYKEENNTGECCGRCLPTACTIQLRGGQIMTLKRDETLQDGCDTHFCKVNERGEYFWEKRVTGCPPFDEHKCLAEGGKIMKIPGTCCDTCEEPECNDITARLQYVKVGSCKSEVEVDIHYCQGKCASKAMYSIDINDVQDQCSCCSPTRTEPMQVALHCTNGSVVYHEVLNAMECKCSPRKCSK

AAGGILHLELLV [peptide with the sequence …] yielded a NaCl concentration at which vWF elutes from the peptide of 100 mmol/L.
